For orientation: Kd means the free concentration of one partner at which half of the binding sites on the other are occupied at equilibrium, for simple one-to-one binding. The low end stands for tighter binding, the high end for weaker binding.

Substitutions are numbered along the chain they refer to.

One molecule from publication PMC3419727, “Identifying the Hotspots on the Top Faces of WD40-Repeat Proteins from Their Primary Sequences by β-Bulges and DHSW Tetrads” (PLoS ONE, 2012) can be followed below.

Common to all, as to test: ITC; Fep1 (~1.4 mM) injected, 2 µl each time, into Tup11 WT or mutant (~0.2 mM); 25°C; 1×PBS pH 7.4, 150 mM NaCl; iTC200 (MicroCal); Fep1 into buffer subtracted as background
Conditions in all cases: both partners purified

Assay [1] has as its target T1, S. japonicus Tup11 WD40 domain (amino acids 301–630), wild type (S. japonicus, UniProt B6JV84 301-630).
T1 construct: Tup11, S. japonicus, WD40 domain, amino acids 301-630; also called Tup11 WT
T1 sequence (looked up): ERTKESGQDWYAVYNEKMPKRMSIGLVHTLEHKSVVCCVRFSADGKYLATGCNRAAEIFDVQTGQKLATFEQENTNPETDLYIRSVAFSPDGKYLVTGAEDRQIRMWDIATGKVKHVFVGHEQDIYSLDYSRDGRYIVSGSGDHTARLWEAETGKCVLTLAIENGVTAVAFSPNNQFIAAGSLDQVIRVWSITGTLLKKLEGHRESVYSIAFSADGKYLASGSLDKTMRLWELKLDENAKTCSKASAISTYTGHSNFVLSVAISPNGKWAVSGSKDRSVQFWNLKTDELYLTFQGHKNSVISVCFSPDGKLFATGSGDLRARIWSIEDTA

The target of assay [2] is T2, S. japonicus Tup11 WD40 domain (301–630) Cys337Ala (S. japonicus, UniProt B6JV84 301-630, Cys337 substituted by Ala).
T2 construct: Tup11, S. japonicus, WD40 domain, amino acids 301-630; also called Cyc337
T2 sequence (looked up): T1 sequence (looked up) with C37A

Assay [3] deals with T3, S. japonicus Tup11 WD40 domain (301–630) Thr467Ala (S. japonicus, UniProt B6JV84 301-630, Thr467 substituted by Ala).
T3 construct: Tup11, S. japonicus, WD40 domain, amino acids 301-630
T3 sequence (looked up): T1 sequence (looked up) with T167A

In assay [4] the target is T4, S. japonicus Tup11 WD40 domain (301–630) Tyr508Ala (S. japonicus, UniProt B6JV84 301-630, Tyr508 substituted by Ala).
T4 construct: Tup11, S. japonicus, WD40 domain, amino acids 301-630
T4 sequence (looked up): T1 sequence (looked up) with Y208A

Assay [5] concerns the target T5, S. japonicus Tup11 WD40 domain (301–630) Leu559Ala (S. japonicus, UniProt B6JV84 301-630, Leu559Ala).
T5 construct: Tup11, S. japonicus, WD40 domain, amino acids 301-630
T5 sequence (looked up): T1 sequence (looked up) with L259A

B1: C-terminal region of S. pombe Fep1 (amino acids 319–564) (domain or fragment, UniProt Q10134 319-564, looked up)
chain: AAGEPDNNGKVYYSYGPTQEQSILPLPENKHEGLPPYQNEYVPNGIRANQVVYPGQLVAVGNDSSKQLSESTTSNTDNNGVATANQSNPLGMKFHLPPILPVGESVCLPPRTSAKPRIAEGIASLLNPEEPPSNSDKQPSMSNGPKSEVSPSQSQQAPLIQSSTSPVSLQFPPEVQGSNVDKRNYALNVLSQLRSQHDLMIQELHNLNQHIQQIDEWLRSSDNENMASEHIKSSTPAVVASGALQT
notes: Fep1, GATA-factor, S. pombe, C-terminal region, amino acids 319-564
Molecule B1 returned a Kd in assay [1] of approximately 10 µM. For the same molecule, the binding result in assay [2], in assay [3] and in assay [4] was “binds” throughout. The “reduction of binding free energy against wild type” value in assay [5] is approximately 1 kcal/mol.
